This data set is described as follows: soluble on expression in E. coli; label from the status in PepcDB or PDB records.
As for “MMKTFHWKVDPDMGVDSEPQVSVVRFGDGYEQRRASGINNDLKKYSVTIRVDREDGPGLEGFLSQHNGVKAFLWTPPYGYRQIKVVCRKWSVKAGLLKTTFTATFEQVIS”, the “soluble on expression in E. coli” value is recorded as “not soluble”. Take “MGHHHHHHSHMRSTGSAPSCSGESARAHRRRAGAMSIRSSRTKHSTAQKGAHRRRVSLAGFFNLIYKRQDLGLDFLREMSEPLCTSRPVLLPLNLKNIAPGRCISLTPFGHTDNLGFQCETCTDPNLNKSIPPKLEDPAFSKNELCSVTLTFYQQAEQVIQHKQFYLSLLNLSMDAVRNSLTQPGLLYCYLVTKAFMLEGFPIFFEETNGMLGLYLVFRRDLLHLHESYLRLLIDNLGNYDISVDSVGRSYIIKLCPVGNVSRIPTIPADNVCLAVNNLDYGDDVKASWIECFNIVSRLSQQ”: the “soluble on expression in E. coli” value was “not soluble”. As to “MQDTLPIHFAPLQGYTEAIYRNAHDAFFGGVDTYYTPFVRLEKGNFRRRDVRGIEPENNGVPHLIPQLIASSAEKAEVILSLFIEKGYQEVDINLGCPFPLLAKRHNGSGILPYPEEVKALLSIVTRYPQISFSVKMRLGWEQPDECLALAPILNDLPLRQITMHPRLGKQGYKGEVDLQGFSAFREVCQLPLVYNGDIHNLEDIQRISTQFPSLAGIMIGRGLLANPALALEYKENRTLAPDEMRDRLKSMHKSVYNNYDVLLEGGEGQLLTKMKTFWEYLAPQTDRKVLKAIHKSTNISKYYQAVSAFFNQR”, the “soluble on expression in E. coli” value is on record as “not soluble”. Next, “MASSSLVRIAVVGDIHGFWNLDEDRKALRVLQERKTKTKRCSNATRYMDFPSFKLSIVGGRPFSHGGDRLFRKNLLVQRYGVHDMEASAGSICRAAHGTPEDHVAIILAHNGPTGLGWQAEDICGKDWGAEGGDHGDPDLEQAIRQLKETTKLSIPLVVFGHMHKELQRGKGNRKMVVQDSDNQTVYVNGAIVPRVKEAKKRGAAESESGGTTRAFTLVEILDGKIKKIAEIWVHVNGSMAKIVEENTLFEDVT”: “soluble”; “MSLEEILIIDDSRQIADFLAETVLPYYGYRSRVVPTGWEGLAFLKQRQPDLILLDLQLPDTSGLDVLRQMGELGYDIPVILMTAHGTEQTAVEAFRLGAKNYLIKPFDASEAGAAIERALRERRLQREKEVLTRTLQQRLQELTILSSVGKSVTSLLDLEELLERIVDAGVYLTHAEEGYLLLRDGDELYLRAAKNLGEERVQRFRVKMDDNVAGQVIRTVKPIRLDRSQHQDLKLRTGLLVQAMLQVPLIVGRHAIGVLAVDNRVQQRTFSENDQYLLSAIADYAAIAIENSREGHHHHHH”: “soluble”. In the case of “MAHHHHHHMEDTINVFGRGTPAGEAIYRCYVAPSKPSTLDPQLAALLARRRQEREAAEAAQAHPKPIPKSKAPVHRPRVGMGKRPTEEEYARWRLQHIPHRRSKAAIEAEEEAHRWVPPPVSERFARPAITDAEKDRLADVMAYGAELPKPKEFTGVQRARFHRLEPRAELEDRFTKLRQTAQEVQSELAQLRQSAPGAGASLPSGGRVVESVSDPQARLSQRRSCGGGGDPATASPCPLASAASPGAAAARDVLSIGGTRVGRQGDSKMSTIERCRQERELQSHLGTVIAEMEAVDRELNRLPISS”, the “soluble on expression in E. coli” value is given as “soluble”.

As to “MNLPLEYHPFPAILPKSATVAMLGTFPPTSEKRCMEFHYPNFQNDMWRIMGLLFYKNLDHFRVDQEKRFDPVRIEAFLREKGIALCSSAQTAIRLKGNASDKDLKIIDAIDMQALLTELPQLKWLFTTGGLATETLLSLLPEKSKLPKTNEWINYPYTTDRTLYLYRLPSTSRAYPLSLAKKVEAYRQFFVRVGLEHHHHHH”, the “soluble on expression in E. coli” value is on record as “not soluble”. The same measure for “MGSDKIHHHHHHMAVVCRRITASSRTYSLSALTRCLQEEAAAIAVAAERLSSSQVEKALVLLERCSDQRAKLVITGVGKSGIVARKIAATFSSIGLMALYLNPLDAMHGDLGVVAQEDVCLLLSNSGETAELLEVLPHLKRRGTARIALVGKPDSSLARGSDVVLEASVDREVCPLNLAPTASTAVAMAIGDALAAIWMERRNISPADFAFNHPAGSLGKQLTLTASDLMVPVEKVQPLQPNTSLQEVICKLTQDGIGSGWVEDPSTAGLLLGLITDGDLRRALRDHSAENWASLSAAELMTADPITVDADLLAVEAIKQMECNRRKPISVLPVVGPDSSGNLLLGLLRLHDLIQAGLT”: “not soluble”.

As to “MVEKEEAGGGISEEEAAQYDRQIRLWGLEAQKRLRASRVLLVGLKGLGAEIAKNLILAGVKGLTMLDHEQVTPEDPGAQFLIRTGSVGRNRAEASLERAQNLNPMVDVKVDTEDIEKKPESFFTQFDAVCLTCCSRDVIVKVDQICHKNSIKFFTGDVFGYHGYTFANLGEHEFVEEKTKVAKVSQGVEDGPDTKRAKLDSSETTMVKKKVVFCPVKEALEVDWSSEKAKAALKRTTSDYFLLQVLLKFRTDKGRDPSSDTYEEDSELLLQIRNDVLDSLGISPDLLPEDFVRYCFSEMAPVCAVVGGILAQEIVKALSQRDPPHNNFFFFDGMKGNGIVECLGPK”, the “soluble on expression in E. coli” value was “soluble”. Next, “MDAPKAGYAFEYLIETLNDSSHKKFFDVSKLGTKYDVLPYSIRVLLEAAVRNCDGFLMKKEDVMNILDWKTKQSNVEVPFFPARVLLQDFTGIPAMVDFAAMREAVKTLGGDPEKVHPACPTDLTVDHSLQIDFSKCAIQNAPNPGGGDLQKAGKLSPLKVQPKKLPCRGQTTCRGSCDSGELGRNSGTFSSQIENTPILCPFHLQPVPEPETVLKNQEVEFGRNRERLQFFKWSSRVFKNVAVIPPGTGMAHQINLEYLSRVVFEEKDLLFPDSVVGTDSHITMVNGLGILGWGVGGIETEAVMLGLPVSLTLPEVVGCELTGSSNPFVTSIDVVLGITKHLRQVGVAGKFVEFFGSGVSQLSIVDRTTIANMCPEYGAILSFFPVDNVTLKHLEHTGFSKAKLESMETYLKAVKLFRNDQNSSGEPEYSQVIQINLNSIVPSVSGPKRPQDRVAVTDMKSDFQACLNEKVGFKGFQIAAEKQKDIVSIHYEGSEYKLSHGSVVIAAVISCTNNCNPSVMLAAGLLAKKAVEAGLRVKPYIRTSLSPGSGMVTHYLSSSGVLPYLSKLGFEIVGYGCSTCVGNTAPLSDAVLNAVKQGDLVTCGILSGNKNFEGRLCDCVRANYLASPPLVVAYAIAGTVNIDFQTEPLGTDPTGKNIYLHDIWPSREEVHRVEEEHVILSMFKALKDKIEMGNKRWNSLEAPDSVLFPWDLKSTYIRCPSFFDKLTKEPIALQAIENAHVLLYLGDSVTTDHISPAGSIARNSAAAKYLTNRGLTPREFNSYGARRGNDAVMTRGTFANIKLFNKFIGKPAPKTIHFPSGQTLDVFEAAELYQKEGIPLIILAGKKYGSGNSRDWAAKGPYLLGVKAVLAESYEKIHKDHLIGIGIAPLQFLPGENADSLGLSGRETFSLTFPEELSPGITLNIQTSTGKVFSVIASFEDDVEITLYKHGGLLNFVARKFS”: “soluble”. “MTLNPRQSALVELVRTQGSATIEALARHFDVTLQTVRRDVNLLSEAGMLSRFHGGVRIESSTIENIAYRKRQGLHAEGKRRIAEAVARAVPDGCSLLINIGTTTEAIARALLRHRGLRVITNNLHVADILSDNPDCEVIVAGGVVRSRDRGIVGEATLDFIRQFKVDIGLIGISGIEADGTLRDYDFREVRVARAIIEQSREVWLAADSSKFQRQAMVELVHVSRIHRFFTDTQPQEPLAQVLQDAGVRCDVAAQSAGAAAALEHHHHHH”: the “soluble on expression in E. coli” value is recorded as “not soluble”. Next, “MSDFEETIRRLQSEKGVVGIIVVDSAGRVIHSTIDSDATQSHTAFLQQLCEKTKTSIRELDSSNDLTFLRLRTKKNEIMIAPDKDHVIMVIKDLS”: “not soluble”. The same measure for “MGSDKIHHHHHHMRSMTDVRRYWISLLRKICEMPLELCASDRLKKSMPVEGKKSEERRKFTHLELLGRIFCGISPFLELNRESPSTDPEERKIATRLSEFAVKSLDVATNPNCKDYMNFKEGRQPLVDAAFLVEAILRAPKVLWEDLDVSTKKRLIRELKATRKIEPYFSNWLLFSAMIETFFFFAGEEWDSTKVDLILKNVESWYKGDGAYGDGPFFRWDYYNSFVIYPMTIDVLRIISEEKTEWKELYVKVLRRAQRYAVVLERMISPEGTFPIIGRSITYRTAVFHLLSQLSLLHLLPASLSPAQVRCALTAVLRRIFENPSTFDENGWLKIGVIGSQPSLGEEYITTGSLYLCTTVFLPLGLPTSDPFWRDPCKKWTNKKVWEGEDVAPDRALED”: “not soluble”. The same measure for “MHPRFQTAFAQLADNLQSALAPILADHHFPAMLTAEQVSTLKNTAGLDEDALAFALLPLAAACARTDLSHFNVGAIARGVSGNWYFGANMEFLGATMQQTVHAEQSAISHAWLRGEKGLAAVTVNYTPCGHCRQFMNELNSGLDLRIHLPGRAPHTLRDYLPDAFGPKDLEIKTLLMDEQDHGFTLTGDTLTQAAITAANKSHMPYSHSPSGVALECKDGRIFTGSYAENAAFNPTLPPLQGALNLLSLNGYDYADIQRAILAEKGDAALIQWDATAATLKALGCHNIDRVLLG”: “not soluble”. As to “MEALKRKIEEEGVVLSDQVLKVDSFLNHQIDPLLMQRIGDEFASRFAKDGITKIVTIESSGIAPAVMTGLKLGVPVVFARKHKSLTLTDNLLTASVYSFTKQTESQIAVSGTHLSDQDHVLIIDDFLANGQAAHGLVSIVKQAGASIAGIGIVIEKSFQPGRDELVKLGYRVESLARIQSLEEGKVSFVQEVHS”, the “soluble on expression in E. coli” value is on record as “soluble”. Next, “MFKDFFNRTKKKKYLTVQDSKNNDVPAGIMTKCPKCKKIMYTKELAENLNVCFNCDHHIALTAYKRIEAISDEGSFTEFDKGMTSANPLDFPSYLEKIEKDQQKTGLKEAVVTGTAQLDGMKFGVAVMDSRFRMGSMGSVIGEKICRIIDYCTENRLPFILFSASGGARMQEGIISLMQMGKTSVSLKRHSDAGLLYISYLTHPTTGGVSASFASVGDINLSEPKALIGFAGRRVIEQTINEKLPDDFQTAEFLLEHGQLDKVVHRNNMRQTLSEILKIHQEVTK”: “not soluble”; “MKVSLAGQTVDVKKILNEIPKRTVTAALLEGGEIVAVEEADDEHAERKLVRRHDVEGKVVFVTARPCLYCARELAEAGVAGVVYLGRGRGLGPYYLARSGVEVVEVHPDEPLGYDPVDRLDVLLTFGGNPYLTEEDVAARVYCLLTGRGFDADIAPAPENLSGRVEIMVTRGDPDEAVELLKEELPVFRIRRFLISGEFDRDELRERILEDIEPRILDPFAVRARIARAGAFSSSREAEVFIGDVLTSVGREVNLNDPRTVVTVDVLGPRVSVGVEKR”: “soluble”; “SFDNLRNELSRPYGILFINNKIFLEFISKSIQRGSRIITVGDYVSRVLEENGIVPFLEVIDGKTKRTITQNRAITRNKEYKVTNEAGKIRFEIFEIMENILKDREGGVVFVDGEEDLLVIPVTLSANHGDIVIYGQPNAGAVVIIVNEMIRWRVRDILEKAIVKE”: “not soluble”. Next, “MNILNIKEGQHYIAKIESHSFVDGEGVRCSVYVSGCPFQCKGCYNVKAQNFKYGEPFELEMLEEILDYCAPSYIEGLSILGGEPFCNLFITLQLVEAFRQRFGHTKTIWVWTGFLFEYLKQQDDARKSLLEHIDVLVDGMFIQHLYRPNLPYKGSLNQRVIDVQSSLQKEQVIEYLTKLEHHHHHH”: “not soluble”; “KKKPLIGMVHLKPLPGSYHYNDNFDDIVDFAIKEAKKLEEAGFDAVMIENFGDAPFKKEADKITIASMAVIAKAIKEEVSLPLGINILRNDAIGAYSIAYVVKADFIRVNVLSGVAFTDQGIIEGKAYELAKLKKLLPSKIKVFADVHVKHAYHFIDFESSLLDTVERGLADAVIISGKRTGKEVDIEKLKLAKELVDVPVIVGSGTNYNNLRILWSYADGFIIGTWIKKDGKANNEIDIDRAKKIVNLANKLKM”: “not soluble”.

Values taken from the DeepSol protein solubility set.
